{"source": "patent US10058586B2", "about": "“Use of human small leucine zipper protein in adipocyte differentiation procedure” (Korea University Research and Business Foundation, priority 2013, dated 2018)", "molecules": {"B1": {"name": "sLZIP: human small leucine-zipper protein, isoform of LZIP, 354 amino acids, no transmembrane domain; GenBank FJ263669, SEQ ID NO: 1 (protein, listed as Homo sapiens)", "chain": "MELELDAGDQDLLAFLLEESGDLGTAPDEAVRAPLDWALPLSEVPSDWEVDDLLCSLLSPPASLNILSSSNPCLVHHDHTYSLPRETVSMDLESESCRKEGTQMTPQHMEELAEQEIARLVLTDEEKSLLEKEGLILPETLPLTKTEEQILKRVRRKIRNKRSAQESRRKKKVYVGGLESRVLKYTAQNMELQNKVQLLEEQNLSLLDQLRKLQAMVIEISNKTSSSSMYSSDTRGSLPAEHGVLSRQLRALPSEDPYQLELPALQSEVPKDSTHQWLDGSDCVLQAPGNTSCLLHYMPQAPSAEPPLEWPFPDLFSEPLCRGPILPLQANLTRKGGWLPTGSPSVILQDRYSG"}}, "key": {"[1]": {"molecular_target": "T1, PPARγ2 and HDAC3 (Homo sapiens, UniProt P37231)", "T1 construct": "expressed in transfected cells; host or cells: 293T cells", "T1 sequence (P37231 1-505)": "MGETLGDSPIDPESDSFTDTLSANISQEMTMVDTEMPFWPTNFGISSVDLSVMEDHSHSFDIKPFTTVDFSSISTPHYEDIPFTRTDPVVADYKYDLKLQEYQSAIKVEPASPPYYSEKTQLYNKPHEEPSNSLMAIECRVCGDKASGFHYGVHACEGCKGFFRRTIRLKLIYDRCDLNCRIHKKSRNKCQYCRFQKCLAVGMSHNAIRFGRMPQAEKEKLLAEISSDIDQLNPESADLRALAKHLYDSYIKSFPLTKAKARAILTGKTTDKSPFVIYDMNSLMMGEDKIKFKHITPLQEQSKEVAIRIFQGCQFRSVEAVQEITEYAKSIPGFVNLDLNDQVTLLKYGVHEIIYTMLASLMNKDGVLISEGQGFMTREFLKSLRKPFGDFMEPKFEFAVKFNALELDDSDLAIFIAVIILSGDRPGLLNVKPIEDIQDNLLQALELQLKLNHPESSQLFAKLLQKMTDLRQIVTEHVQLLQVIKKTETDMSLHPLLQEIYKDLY", "experiment": "GST pull-down of GST-HDAC3, Myc-PPARγ2 and Flag-sLZIP in 293T cells", "assay_type": "binding", "settings": "in the presence of ligand (10 nM RZD)", "description": "Therefore, in order to understand a regulation mechanism of sLZIP in the PPARγ2 transcriptional activity by binding to the FABP4 promoter region, an effect of sLZIP on the interaction between PPARγ2 and HDAC3 was examined. For this purpose, 293T cells were transfected with GST-HDAC3, Myc-PPARγ2 and Flag-sLZIP, and were treated or not treated with 10 nM of RZD for 24 hours. Cell lysates were subjected to GST pull-down analysis using a glutathione 4B bead, and a protein complex was analyzed in SDS-PAGE, and then immunoblotted with anti-GST, anti-Myc and anti-Flag antibodies (FIG. 6A). GST-HDAC3, GST-PPARγ2, Myc-PPARγ2, Flag-sLZIP and Ha-UB were expressed in the 293T cells, and the cells were treated with 10 nM of RZD for 24 hours. Cell lysates were subjected to GST pull-down analysis (FIG. 6B). GST-PPARγ2 and Flag-sLZIP were expressed in the 293T cells and treated with 10 nM of RZD for 24 hours. Cell lysates were subjected to GST pull-down analysis, and a protein complex was analyzed in SDS-PAGE, and then immunoblotted with anti-PGC1α, anti-GST and anti-Flag antibodies (FIG. 6C)."}, "[2]": {"tested_on": "CREB element in the FABP4 enhancer", "experiment": "Chromatin immunoprecipitation (ChIP) with HA-sLZIP in C3H10T1/2 cells", "assay_type": "cell-based", "settings": "RZD treated or not", "description": "C3H10T1/2 cells grown in a 100-mm culture dish were infected with adenovirus HA-sLZIP. After the infection, the cells remained in a growth medium until the cells reaches 100% confluence, and the medium was exchanged with a differentiation medium. The cells were washed with 1×PBS, the medium was treated with 1% formaldehyde for 10 minutes at room temperature, and then glycine was added for 5 minutes at a final concentration of 0.125 M. The cells were strapped with PBS, and centrifuged at 1000×g for 5 minutes at 4° C. ChIP analysis was performed such that anti-HA antibodies and anti-rabbit IgG serving as an internal control group were used and precipitated together with a DNA-protein complex. An enhancer region of FABP4 including a functional CREs was amplified from the prepared DNA.\nA DNA binding ability of sLZIP with various elements in the FABP4 enhancer region was examined. For this purpose, recombinant His-sLZIP fusion proteins (3 μg) were incubated with γ-^32P-labeled oligonucleotide probes containing expected CREB binding elements (FIG. 7B). The γ-^32P-labeled oligonucleotide probes were incubated while an amount of purified His-sLZIPs was increased. For competition analysis, unlabeled CREB oligonucleotide probes of 100-fold excess were used and His antibodies were added to a reaction mixture on ice for additional 40 minutes (FIG. 7C). […]"}}, "data": [{"molecule": "B1", "values": [{"measurement": "effect on interaction between PPARγ2 and HDAC3 (GST pull-down)", "setting": "[1]", "result": "enhanced interaction between PPARγ2 and HDAC3"}, {"measurement": "recruitment to CREB element in the FABP4 enhancer (ChIP)", "setting": "[2]", "result": "gathered in the CREB element in the FABP4 enhancer"}]}]}
